± gives the standard deviation of the averaged measurements.
Key:
hTERT-HMEC = experiment: percentage of EdU-negative (G0-arrested) nuclei per well, 72 h; higher = more G0 arrest; conditions: reference: sequence is the full UniProt precursor, the tested protein was the secreted form or ectodomain
MCF7 = experiment: as above; conditions: reference: sequence is the full UniProt precursor, the tested protein was the secreted form or ectodomain
[1] = protein concentration 0.03125 µM
[2] = protein concentration 0.3125 µM
[3] = protein concentration 0.02075 µM
[4] = protein concentration 0.2075 µM
[5] = protein concentration 0.0225 µM
[6] = protein concentration 0.0260325 µM
[7] = protein concentration 0.260325 µM
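Also: secreted proteins added to cultured cells, EdU pulse at the end, nuclei found by Hoechst imaging, EdU status from nuclear versus surrounding ring intensity ratio, PBS as neutral control.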

**Q.** For “MGRGWGFLFGLLGAVWLLSSGHGEEQPPETAAQRCFCQVSGYLDDCTCDVETIDRFNNYRLFPRLQKLLESDYFRYYKVNLKRPCPFWNDISQCGRRDCAVKPCQSDEVPDGIKSASYKYSEEANNLIEECEQAERLGAVDESLSEETQKAVLQWTKHDDSSDNFCEADDIQSPEAEYVDLLLNPERYTGYKGPDAWKIWNVIYEENCFKPQTIKRPLNPLASGQGTSEENTFYSWLEGLCVEKRAFYRLISGLHASINVHLSARYLLQETWLEKKWGHNITEFQQRFDGILTEGEGPRRLKNLYFLYLIELRALSKVLPFFERPDFQLFTGNKIQDEENKMLLLEILHEIKSFPLHFDENSFFAGDKKEAHKLKEDFRLHFRNISRIMDCVGCFKCRLWGKLQTQGLGTALKILFSEKLIANMPESGPSYEFHLTRQEIVSLFNAFGRISTSVKELENFRNLLQNIH [Q96HE7]”, which “percentage of EdU-negative” value (hTERT-HMEC; [1]) is on record?
**A.** The value was 6.24 ± 0.39%.

**Q.** What about the “percentage of EdU-negative” value (hTERT-HMEC; [2]) of the same sequence?
**A.** The value was 6.47 ± 0.033%.

**Q.** And the “percentage of EdU-negative” value (MCF7; [1])?
**A.** The value was 26.32 ± 0.034%.

**Q.** What about the “percentage of EdU-negative” value (MCF7; [2]) of the same sequence?
**A.** Its value is 25.7 ± 0.52%.

**Q.** How did the “percentage of EdU-negative” value (hTERT-HMEC; [3]) turn out when “MGTLPWLLAFFILGLQAWDTPTIVSRKEWGARPLACRALLTLPVAYIITDQLPGMQCQQQSVCSQMLRGLQSHSVYTIGWCDVAYNFLVGDDGRVYEGVGWNIQGLHTQGYNNISLGIAFFGNKIGSSPSPAALSAAEGLISYAIQKGHLSPRYIQPLLLKEETCLDPQHPVMPRKVCPNIIKRSAWEARETHCPKMNLPAKYVIIIHTAGTSCTVSTDCQTVVRNIQSFHMDTRNFCDIGYHFLVGQDGGVYEGVGWHIQGSHTYGFNDIALGIAFIGYFVEKPPNAAALEAAQDLIQCAVVEGYLTPNYLLMGHSDVVNILSPGQALYNIISTWPHFKH [Q96LB9]” was run?
**A.** Its value is 5.52 ± 0.69%.

**Q.** And the “percentage of EdU-negative” value (hTERT-HMEC; [4])?
**A.** The value was 5.51 ± 0.12%.

**Q.** And the “percentage of EdU-negative” value (MCF7; [3])?
**A.** The value was 25.5 ± 4.8%.

**Q.** What about the “percentage of EdU-negative” value (MCF7; [4]) of the same sequence?
**A.** The value was 26.6 ± 2.1%.

**Q.** For “MARAMAAAWPLLLVALLVLSWPPPGTGDVVVQAPTQVPGFLGDSVTLPCYLQVPNMEVTHVSQLTWARHGESGSMAVFHQTQGPSYSESKRLEFVAARLGAELRNASLRMFGLRVEDEGNYTCLFVTFPQGSRSVDIWLRVLAKPQNTAEVQKVQLTGEPVPMARCVSTGGRPPAQITWHSDLGGMPNTSQVPGFLSGTVTVTSLWILVPSSQVDGKNVTCKVEHESFEKPQLLTVNLTVYYPPEVSISGYDNNWYLGQNEATLTCDARSNPEPTGYNWSTTMGPLPPFAVAQGAQLLIRPVDKPINTTLICNVTNALGARQAELTVQVKEGPPSEHSGISRNAIIFLVLGILVFLILLGIGIYFYWSKCSREVLWHCHLCPSSTEHASASANGHVSYSAVSRENSSSQDPQTEGTR [A0A0C4DG49]”, which “percentage of EdU-negative” value (hTERT-HMEC; [5]) is on record?
**A.** The value was 4.71 ± 0.025%.

**Q.** And the “percentage of EdU-negative” value (hTERT-HMEC; protein concentration 0.225 µM)?
**A.** Its value is 10.7 ± 2.4%.

**Q.** And the “percentage of EdU-negative” value (MCF7; [5])?
**A.** The value was 23.8 ± 1.6%.

**Q.** And the “percentage of EdU-negative” value (MCF7; protein concentration 0.225 µM)?
**A.** Its value is 26.1 ± 2.5%.

**Q.** For “MLPPPRPAAALALPVLLLLLVVLTPPPTGARPSPGPDYLRRGWMRLLAEGEGCAPCRPEECAAPRGCLAGRVRDACGCCWECANLEGQLCDLDPSAHFYGHCGEQLECRLDTGGDLSRGEVPEPLCACRSQSPLCGSDGHTYSQICRLQEAARARPDANLTVAHPGPCESGPQIVSHPYDTWNVTGQDVIFGCEVFAYPMASIEWRKDGLDIQLPGDDPHISVQFRGGPQRFEVTGWLQIQAVRPSDEGTYRCLGRNALGQVEAPASLTVLTPDQLNSTGIPQLRSLNLVPEEEAESEENDDYY [Q96I82]”, which “percentage of EdU-negative” value (hTERT-HMEC; [5]) is on record?
**A.** Its value is 5.43 ± 0.24%.

**Q.** And the “percentage of EdU-negative” value (hTERT-HMEC; protein concentration 0.225 µM)?
**A.** Its value is 5.18 ± 0.4%.

**Q.** What about the “percentage of EdU-negative” value (MCF7; [5]) of the same sequence?
**A.** The value was 25.7 ± 0.96%.

**Q.** And the “percentage of EdU-negative” value (MCF7; protein concentration 0.225 µM)?
**A.** The value was 28.1 ± 2.9%.

**Q.** Which results are given for “MGGPRALLAALWALEAAGTAALRIGAFNIQSFGDSKVSDPACGSIIAKILAGYDLALVQEVRDPDLSAVSALMEQINSVSEHEYSFVSSQPLGRDQYKEMYLFVYRKDAVSVVDTYLYPDPEDVFSREPFVVKFSAPGTGERAPPLPSRRALTPPPLPAAAQNLVLIPLHAAPHQAVAEIDALYDVYLDVIDKWGTDDMLFLGDFNADCSYVRAQDWAAIRLRSSEVFKWLIPDSADTTVGNSDCAYDRIVACGARLRRSLKPQSATVHDFQEEFGLDQTQALAISDHFPVEVTLKFHR”?
**A.** percentage of EdU-negative (hTERT-HMEC; [6]): 4.97 ± 0.32%; percentage of EdU-negative (hTERT-HMEC; [7]): 5.04 ± 0.098%; percentage of EdU-negative (MCF7; [6]): 25.9 ± 0.85%; percentage of EdU-negative (MCF7; [7]): 23.9 ± 1.7%

**Q.** With “MPAFNRLFPLASLVLIYWVSVCFPVCVEVPSETEAVQGNPMKLRCISCMKREEVEATTVVEWFYRPEGGKDFLIYEYRNGHQEVESPFQGRLQWNGSKDLQDVSITVLNVTLNDSGLYTCNVSREFEFEAHRPFVKTTRLIPLRVTEEAGEDFTSVVSEIMMYILLVFLTLWLLIEMIYCYRKVSKAEEAAQENASDYLAIPSENKENSAVPVEE [Q9NY72]” as the sequence, how does the “percentage of EdU-negative” value (hTERT-HMEC; [1]) read?
**A.** Its value is 4.7 ± 0.6%.

**Q.** What about the “percentage of EdU-negative” value (hTERT-HMEC; [2]) of the same sequence?
**A.** The value was 4.76 ± 0.95%.

**Q.** And the “percentage of EdU-negative” value (MCF7; [1])?
**A.** The value was 25.4 ± 0.68%.

**Q.** And the “percentage of EdU-negative” value (MCF7; [2])?
**A.** The value was 25.4 ± 1.8%.

**Q.** What does the source list for “MNLAISIALLLTVLQVSRGQKVTSLTACLVDQSLRLDCRHENTSSSPIQYEFSLTRETKKHVLFGTVGVPEHTYRSRTNFTSKYNMKVLYLSAFTSKDEGTYTCALHHSGHSPPISSQNVTVLRDKLVKCEGISLLAQNTSWLLLLLLSLSLLQATDFMSL”?
**A.** percentage of EdU-negative (hTERT-HMEC; [5]): 4.527 ± 0.039%; percentage of EdU-negative (hTERT-HMEC; protein concentration 0.225 µM): 6.24 ± 0.86%; percentage of EdU-negative (MCF7; [5]): 27.7 ± 0.2%; percentage of EdU-negative (MCF7; protein concentration 0.225 µM): 26.6 ± 1.3%

From the supplement of paper PMC11316812
